Assay results from patent US20250263504A1 (Takeda / Millennium, published 2025).
Values joined by “and” are separate entries in the source; they are usually repeats but may differ in a detail not shown here. Identical values can stand only once.

Assays:
plasma kallikrein (pKal) [1] = biological target: T1, plasma kallikrein (pKal) (UniProt P03952 20-390; P03952 391-638, limits assumed); assay: enzyme inhibition of human pKal: rate (F/s) against antibody concentration (0 to 10 nM), fit to the tight-binding equation printed in the panel; K is Ki,app. Columns are coefficient, std. error, t, P. The unit is taken from the concentration axis '[nM]' [CONT'D) B. (right panel]
T1 construct: the description speaks of human pKal; also called active pKal

Factor XIIa (FXIIa) [2] = biological target: T2, Factor XIIa (FXIIa) (UniProt P00748 20-372; P00748 373-615, limits assumed); assay: enzyme inhibition: rate (F/s) against antibody concentration (0 to about 9000 pM), fit to the tight-binding inhibitor equation; K is Ki,app. FXIIa as the enzyme follows from the text; it is not printed in the panel [right panel]
T2 construct: the description speaks of human FXIIa; also called active Factor XII
T2 sequence (looked up) 1: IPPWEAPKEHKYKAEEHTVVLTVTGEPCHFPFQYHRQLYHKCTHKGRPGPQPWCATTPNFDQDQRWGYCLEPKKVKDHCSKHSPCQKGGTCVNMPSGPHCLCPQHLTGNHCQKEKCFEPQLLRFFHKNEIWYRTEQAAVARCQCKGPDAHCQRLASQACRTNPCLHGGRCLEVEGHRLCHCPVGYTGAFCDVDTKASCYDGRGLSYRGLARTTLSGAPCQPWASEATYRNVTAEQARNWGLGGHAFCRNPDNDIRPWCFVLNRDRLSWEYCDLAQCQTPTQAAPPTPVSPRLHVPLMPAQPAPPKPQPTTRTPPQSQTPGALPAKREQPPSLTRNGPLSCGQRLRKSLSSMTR
T2 sequence (looked up) 2: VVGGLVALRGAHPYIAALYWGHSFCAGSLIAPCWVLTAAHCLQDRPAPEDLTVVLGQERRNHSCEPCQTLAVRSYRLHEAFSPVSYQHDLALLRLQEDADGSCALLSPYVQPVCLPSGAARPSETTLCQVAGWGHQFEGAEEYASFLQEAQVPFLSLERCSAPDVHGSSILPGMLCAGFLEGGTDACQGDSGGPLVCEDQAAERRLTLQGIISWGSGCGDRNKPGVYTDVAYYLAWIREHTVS

plasma kallikrein (pKal) [3] = biological target: T1, plasma kallikrein (pKal); assay: enzyme inhibition assay, apparent Ki
Factor XIIa (FXIIa) [4] = biological target: T2, Factor XIIa (FXIIa); assay: enzyme inhibition assay, apparent Ki
plasma kallikrein (pKal) [5] = biological target: T1, plasma kallikrein (pKal); assay: enzyme inhibition, peptide substrate, tight-binding fit, Ki,app
Experimental: (§1) Varying concentrations of the bispecific antibodies were incubated with individual FXIIa and pKal samples, and the ability of these proteases to cleave a peptide substrate was monitored over time by measuring changes in the fluorescence of a chemical moiety covalently attached to the peptide substrate. Slopes of this kinetic data are equivalent to enzymatic proteolytic rates, which are then plotted against the concentration of the inhibitor. The resulting plots are then fit to a tight binding inhibitor equation (Equation 1) by nonlinear regression to obtain apparent inhibition constants (Kᵢ^app).

Factor XIIa (FXIIa) [6] = biological target: T2, Factor XIIa (FXIIa); assay: as above
Experimental: as §1

plasma kallikrein (pKal) [7] = biological target: T1, plasma kallikrein (pKal); assay: pKal enzyme inhibition, Ki,app
Factor XIIa (FXIIa) [8] = biological target: T2, Factor XIIa (FXIIa); assay: FXIIa enzyme inhibition, Ki,app
plasma kallikrein (pKal) [9] = biological target: T1, plasma kallikrein (pKal); assay: enzyme inhibition of human pKal: rate (F/s) against antibody concentration (0 to 10 nM), fit to the tight-binding equation printed in the panel; K is Ki,app. Columns are coefficient, std. error, t, P. The unit is taken from the concentration axis '[nM]' [CONT'D) B. (left panel]
plasma kallikrein (pKal) [10] = biological target: T1, plasma kallikrein (pKal); assay: enzyme inhibition, corrected Ki,app, control plate 2
plasma kallikrein (pKal) [11] = biological target: T1, plasma kallikrein (pKal); assay: pKal enzyme inhibition, Ki,app, control
plasma kallikrein (pKal) [12] = biological target: T1, plasma kallikrein (pKal); assay: enzyme inhibition, corrected Ki,app, control plate 1

T1 sequence (P03952 20-390 limits assumed, form in doubt, chain 1 of 2): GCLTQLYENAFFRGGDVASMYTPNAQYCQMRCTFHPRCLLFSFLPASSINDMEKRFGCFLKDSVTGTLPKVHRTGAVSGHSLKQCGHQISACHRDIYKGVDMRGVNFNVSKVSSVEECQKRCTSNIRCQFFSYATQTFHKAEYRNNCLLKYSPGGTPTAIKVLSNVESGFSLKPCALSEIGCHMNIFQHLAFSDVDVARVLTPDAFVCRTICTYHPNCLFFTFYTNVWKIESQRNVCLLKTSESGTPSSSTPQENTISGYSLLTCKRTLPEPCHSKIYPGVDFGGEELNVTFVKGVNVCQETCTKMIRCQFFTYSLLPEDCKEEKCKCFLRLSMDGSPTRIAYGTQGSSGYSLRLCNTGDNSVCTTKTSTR
T1 sequence (P03952 391-638 limits assumed, form in doubt, chain 2 of 2): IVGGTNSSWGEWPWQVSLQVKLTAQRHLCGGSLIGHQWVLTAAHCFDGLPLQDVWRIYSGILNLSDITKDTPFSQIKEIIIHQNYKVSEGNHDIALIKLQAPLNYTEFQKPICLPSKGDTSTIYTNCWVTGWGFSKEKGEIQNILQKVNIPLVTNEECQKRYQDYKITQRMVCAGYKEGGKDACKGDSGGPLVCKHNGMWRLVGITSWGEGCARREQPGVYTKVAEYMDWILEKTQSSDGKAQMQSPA

B1: 620I-X0177-A01 (bispecific antibody, human IgG1, kappa)
heavy: not shown
light: DIQMTQSPSTLSASVGDRVTITCRASQSISSWLAWYQQKPGKAPKLLIYKASTLESGVPSRFSGSGSGTEFTLTISSLQPDDFATYYCQQYNTYWTFGQGTKVEIKRTVAAPSVFIFPPSDEQLKSGTASVVCLLNNFYPREAKVQWKVDNALQSGNSQESVTEQDSKDSTYSLSSTLTLSKADYEKHKVYACEVTHQGLSSPVTKSFNRGEC
notes: 620I-X0136-D12 with germlined, gene-optimized scFv and VH44-VL100 disulfide; also called 620I-X0173-A11; 620I-X0136-D12 with H44/L100 engineered disulfide bond
- Ki (plasma kallikrein (pKal) [1]): 0.39 nM
- Ki (Factor XIIa (FXIIa) [2]): 0.0726 nM
- Ki (plasma kallikrein (pKal) [3]): 0.389 nM
- Ki (Factor XIIa (FXIIa) [4]): 0.073 nM

B2: X0122-A01 (bispecific antibody)
heavy: not shown
light: B1 light
notes: also called X122-A01
- Ki (plasma kallikrein (pKal) [5]): 0.169 nM
- Ki (Factor XIIa (FXIIa) [6]): 6.05 nM

B3: X0122-C01 (bispecific antibody)
heavy: not shown
light: B1 light
notes: also called X122-C01
- Ki (plasma kallikrein (pKal) [5]): 0.161 nM
- Ki (Factor XIIa (FXIIa) [6]): 5.69 nM

B4: X0120-A01 (bispecific antibody)
heavy: not shown
light: B1 light
notes: also called X120-A01
- Ki (plasma kallikrein (pKal) [5]): 0.138 nM
- Ki (Factor XIIa (FXIIa) [6]): 0.0515 nM

B5: 620I-X0180-E07 (bispecific antibody, human IgG1, kappa)
heavy: not shown
light: B1 light
notes: 620I-X0177-E01 with IgG C-terminal Lys deleted; also called 620I-R0052-E03; 620I-X180-E07
- Ki (plasma kallikrein (pKal) [7]): 0.243 nM
- Ki (Factor XIIa (FXIIa) [8]): 0.092 nM

B6: 620I-X0180-A05 (bispecific antibody, human IgG1, kappa)
heavy: not shown
light: B1 light
notes: 620I-X0177-G01 with IgG C-terminal Lys deleted; also called 620I-R0052-A03; 620I-X180-A05
- Ki (plasma kallikrein (pKal) [7]): 0.254 nM
- Ki (Factor XIIa (FXIIa) [8]): 0.116 nM

B7: X0121-E01 (bispecific antibody)
heavy: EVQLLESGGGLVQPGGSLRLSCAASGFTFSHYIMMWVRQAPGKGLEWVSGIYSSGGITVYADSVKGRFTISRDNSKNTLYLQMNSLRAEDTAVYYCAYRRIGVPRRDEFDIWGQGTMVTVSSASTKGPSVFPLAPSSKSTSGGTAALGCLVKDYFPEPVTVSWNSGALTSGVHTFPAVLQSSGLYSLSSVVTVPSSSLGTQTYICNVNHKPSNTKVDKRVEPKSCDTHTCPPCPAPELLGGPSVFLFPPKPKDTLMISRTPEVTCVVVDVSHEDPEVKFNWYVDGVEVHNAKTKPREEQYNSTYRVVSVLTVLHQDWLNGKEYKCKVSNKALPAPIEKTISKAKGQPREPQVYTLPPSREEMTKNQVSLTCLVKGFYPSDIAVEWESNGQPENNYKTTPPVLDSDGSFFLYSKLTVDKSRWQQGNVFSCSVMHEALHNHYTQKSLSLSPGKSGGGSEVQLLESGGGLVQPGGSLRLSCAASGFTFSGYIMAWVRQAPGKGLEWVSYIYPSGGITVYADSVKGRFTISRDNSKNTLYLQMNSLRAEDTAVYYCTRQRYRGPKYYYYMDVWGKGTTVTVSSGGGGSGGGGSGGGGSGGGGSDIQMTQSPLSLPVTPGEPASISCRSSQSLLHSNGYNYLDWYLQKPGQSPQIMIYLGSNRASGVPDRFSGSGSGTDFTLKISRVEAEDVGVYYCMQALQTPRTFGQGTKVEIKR
light: B1 light
notes: also called X121-E01
- Ki (plasma kallikrein (pKal) [5]): 0.159 nM
- Ki (Factor XIIa (FXIIa) [6]): 0.611 nM

B8: DX-2930 (antibody, human IgG1, kappa, V domains shown)
VH: EVQLLESGGGLVQPGGSLRLSCAASGFTFSHYIMMWVRQAPGKGLEWVSGIYSSGGITVYADSVKGRFTISRDNSKNTLYLQMNSLRAEDTAVYYCAYRRIGVPRRDEFDIWGQGTMVTVSS
VL: DIQMTQSPSTLSASVGDRVTITCRASQSISSWLAWYQQKPGKAPKLLIYKASTLESGVPSRFSGSGSGTEFTLTISSLQPDDFATYYCQQYNTYWTFGQGTKVEIKR
notes: Anti-pKal IgG1; also called H03
- Ki (plasma kallikrein (pKal) [9]): 0.202 nM
- Ki (plasma kallikrein (pKal) [10]): 0.138 nM
- Ki (plasma kallikrein (pKal) [11]): 0.127 nM and 0.131 nM and 0.151 nM
- Ki (plasma kallikrein (pKal) [12]): 0.16 nM
